Data on 21 molecules can be found in patent US20190119358A1.

B1: R4107 (peptide)
peptide: Ac-[Nva]CY[Tle]KH[NMeA][Phg][Trp(7-aza)]Y[NMePhe(4-F)][Sar]C[PEG4][Pra]-NH2
modifications: linker 2-13 via mXylylene
SMILES: C#CC[C@H](NC(=O)CCOCCOCCOCCOCCNC(=O)[C@@H]1CSCc2cccc(c2)CSC[C@H](NC(=O)[C@H](CCC)NC(C)=O)C(=O)N[C@@H](Cc2ccc(O)cc2)C(=O)N[C@@H](C(C)(C)C)C(=O)N[C@@H](CCCCN)C(=O)N[C@@H](Cc2c[nH]cn2)C(=O)N(C)[C@@H](C)C(=O)N[C@@H](c2ccccc2)C(=O)N[C@@H](Cc2c[nH]c3ncccc23)C(=O)N[C@@H](Cc2ccc(O)cc2)C(=O)N(C)[C@@H](Cc2ccc(F)cc2)C(=O)N(C)CC(=O)N1)C(N)=O
B2: R4103 (peptide)
peptide: Glutaryl-[Nva]CY[Tle]KH[NMeA][Phg][Trp(7-aza)]Y[NMePhe(4-F)][Sar]C-NH2
modifications: linker 2-13 via mXylylene
SMILES: CCC[C@H](NC(=O)CCCC(=O)O)C(=O)N[C@H]1CSCc2cccc(c2)CSC[C@@H](C(N)=O)NC(=O)CN(C)C(=O)[C@H](Cc2ccc(F)cc2)N(C)C(=O)[C@H](Cc2ccc(O)cc2)NC(=O)[C@H](Cc2c[nH]c3ncccc23)NC(=O)[C@H](c2ccccc2)NC(=O)[C@H](C)N(C)C(=O)[C@H](Cc2c[nH]cn2)NC(=O)[C@H](CCCCN)NC(=O)[C@H](C(C)(C)C)NC(=O)[C@H](Cc2ccc(O)cc2)NC1=O
B3: R4112 (peptide)
peptide: Ac-CY[Tle]KH[NMeA][Phg][Trp(7-aza)]Y[NMePhe(4-F)][Sar]C-NH2
modifications: linker 1-12 via mXylylene
SMILES: CC(=O)N[C@H]1CSCc2cccc(c2)CSC[C@@H](C(N)=O)NC(=O)CN(C)C(=O)[C@H](Cc2ccc(F)cc2)N(C)C(=O)[C@H](Cc2ccc(O)cc2)NC(=O)[C@H](Cc2c[nH]c3ncccc23)NC(=O)[C@H](c2ccccc2)NC(=O)[C@H](C)N(C)C(=O)[C@H](Cc2c[nH]cn2)NC(=O)[C@H](CCCCN)NC(=O)[C@H](C(C)(C)C)NC(=O)[C@H](Cc2ccc(O)cc2)NC1=O
B4: R4118 (peptide)
peptide: Ac-[Nva]CY[Tle]KH[NMeA][Phg][Trp(7-aza)]Y[NMePhe(4-F)][NMeS]C-NH2
modifications: linker 2-13 via mXylylene
SMILES: CCC[C@H](NC(C)=O)C(=O)N[C@H]1CSCc2cccc(c2)CSC[C@@H](C(N)=O)NC(=O)[C@H](CO)N(C)C(=O)[C@H](Cc2ccc(F)cc2)N(C)C(=O)[C@H](Cc2ccc(O)cc2)NC(=O)[C@H](Cc2c[nH]c3ncccc23)NC(=O)[C@H](c2ccccc2)NC(=O)[C@H](C)N(C)C(=O)[C@H](Cc2c[nH]cn2)NC(=O)[C@H](CCCCN)NC(=O)[C@H](C(C)(C)C)NC(=O)[C@H](Cc2ccc(O)cc2)NC1=O
B5: R4104 (peptide)
peptide: Ac-SCY[Tle]KH[NMeA][Phg][Trp(7-aza)]Y[NMePhe(4-F)][Sar]C-NH2
modifications: linker 2-13 via mXylylene
SMILES: CC(=O)N[C@@H](CO)C(=O)N[C@H]1CSCc2cccc(c2)CSC[C@@H](C(N)=O)NC(=O)CN(C)C(=O)[C@H](Cc2ccc(F)cc2)N(C)C(=O)[C@H](Cc2ccc(O)cc2)NC(=O)[C@H](Cc2c[nH]c3ncccc23)NC(=O)[C@H](c2ccccc2)NC(=O)[C@H](C)N(C)C(=O)[C@H](Cc2c[nH]cn2)NC(=O)[C@H](CCCCN)NC(=O)[C@H](C(C)(C)C)NC(=O)[C@H](Cc2ccc(O)cc2)NC1=O
B6: R4106 (peptide)
peptide: [UBX][Ahp][Nva]CY[Tle]KH[NMeA][Phg][Trp(7-aza)]Y[NMePhe(4-F)][Sar]C-NH2
modifications: linker 4-15 via mXylylene; N-terminus assumed
SMILES: CCC[C@H](NC(=O)CCCCCCNC(=O)[C@H](CC(C)C)NC(=O)[C@@H](O)[C@H](N)Cc1ccccc1)C(=O)N[C@H]1CSCc2cccc(c2)CSC[C@@H](C(N)=O)NC(=O)CN(C)C(=O)[C@H](Cc2ccc(F)cc2)N(C)C(=O)[C@H](Cc2ccc(O)cc2)NC(=O)[C@H](Cc2c[nH]c3ncccc23)NC(=O)[C@H](c2ccccc2)NC(=O)[C@H](C)N(C)C(=O)[C@H](Cc2c[nH]cn2)NC(=O)[C@H](CCCCN)NC(=O)[C@H](C(C)(C)C)NC(=O)[C@H](Cc2ccc(O)cc2)NC1=O
B7: R4115 (peptide)
peptide: Ac-[Nva]CY[Tle]KH[NMeA][Phg]WY[NMePhe(4-F)][Sar]C-NH2
modifications: linker 2-13 via mXylylene
SMILES: CCC[C@H](NC(C)=O)C(=O)N[C@H]1CSCc2cccc(c2)CSC[C@@H](C(N)=O)NC(=O)CN(C)C(=O)[C@H](Cc2ccc(F)cc2)N(C)C(=O)[C@H](Cc2ccc(O)cc2)NC(=O)[C@H](Cc2c[nH]c3ccccc23)NC(=O)[C@H](c2ccccc2)NC(=O)[C@H](C)N(C)C(=O)[C@H](Cc2c[nH]cn2)NC(=O)[C@H](CCCCN)NC(=O)[C@H](C(C)(C)C)NC(=O)[C@H](Cc2ccc(O)cc2)NC1=O
B8: R4002 (peptide)
peptide: [Nva]CY[Tle]KH[NMeA][Phg][Trp(7-aza)]Y[NMePhe(4-F)][Sar]C-NH2
modifications: linker 2-13 via mXylylene; N-terminus assumed
SMILES: CCC[C@H](N)C(=O)N[C@H]1CSCc2cccc(c2)CSC[C@@H](C(N)=O)NC(=O)CN(C)C(=O)[C@H](Cc2ccc(F)cc2)N(C)C(=O)[C@H](Cc2ccc(O)cc2)NC(=O)[C@H](Cc2c[nH]c3ncccc23)NC(=O)[C@H](c2ccccc2)NC(=O)[C@H](C)N(C)C(=O)[C@H](Cc2c[nH]cn2)NC(=O)[C@H](CCCCN)NC(=O)[C@H](C(C)(C)C)NC(=O)[C@H](Cc2ccc(O)cc2)NC1=O
B9: R4101 (peptide)
peptide: Ac-[Nva]CY[Tle]KH[NMeA][Phg][Trp(7-aza)]Y[NMePhe(4-F)][NMeA]C-NH2
modifications: linker 2-13 via mXylylene
SMILES: CCC[C@H](NC(C)=O)C(=O)N[C@H]1CSCc2cccc(c2)CSC[C@@H](C(N)=O)NC(=O)[C@H](C)N(C)C(=O)[C@H](Cc2ccc(F)cc2)N(C)C(=O)[C@H](Cc2ccc(O)cc2)NC(=O)[C@H](Cc2c[nH]c3ncccc23)NC(=O)[C@H](c2ccccc2)NC(=O)[C@H](C)N(C)C(=O)[C@H](Cc2c[nH]cn2)NC(=O)[C@H](CCCCN)NC(=O)[C@H](C(C)(C)C)NC(=O)[C@H](Cc2ccc(O)cc2)NC1=O
B10: R4117 (peptide)
peptide: Ac-[Nva]C[NMeY][Tle]KH[NMeA][Phg][Trp(7-aza)]Y[NMePhe(4-F)][Sar]C-NH2
modifications: linker 2-13 via mXylylene
SMILES: CCC[C@H](NC(C)=O)C(=O)N[C@H]1CSCc2cccc(c2)CSC[C@@H](C(N)=O)NC(=O)CN(C)C(=O)[C@H](Cc2ccc(F)cc2)N(C)C(=O)[C@H](Cc2ccc(O)cc2)NC(=O)[C@H](Cc2c[nH]c3ncccc23)NC(=O)[C@H](c2ccccc2)NC(=O)[C@H](C)N(C)C(=O)[C@H](Cc2c[nH]cn2)NC(=O)[C@H](CCCCN)NC(=O)[C@H](C(C)(C)C)NC(=O)[C@H](Cc2ccc(O)cc2)N(C)C1=O

What is called IC50 is the midpoint of a concentration-inhibition curve. Read a high IC50 as weaker potency in that assay.

*1 amine or outer side, *2 acyl side, *3 side chain or, on linkers, in order; H or OH if unused. Bridges are numbered along the chain shown (N, C = ends). Where no end group is shown, it is not given here. [ ]: non-standard residue; d: D form. UBX = ((2S,3R)-3-amino-2-hydroxy-4-phenylbutanoyl)-L-leucine, CC(C)C[C@H](NC(=O)[C@@H](O)[C@@H](Cc1ccccc1)N[*:1])C(=O)[*:2]; TDSPA = (R)-2-amino-3-(tert-butyldisulfanyl)propanoic acid, CC(C)(C)SSC[C@H](N[*:1])C(=O)[*:2]; m‑xylylene = m-xylylene thioether bridge between Cys; Trp(7-aza) = N[C@@H](Cc1c[nH]c2ncccc12)C(=O)O; NMePhe(4-F) = CN[C@@H](Cc1ccc(F)cc1)C(=O)O; mXylylene = c1cc(C[*:1])cc(C[*:2])c1; NMeY = CN[C@@H](Cc1ccc(O)cc1)C(=O)O; Glutaryl = O=C(CCCC(=O)[*:2])[*:1]; PEG4 = NCCOCCOCCOCCOCCC(=O)O; Phg = N[C@H](C(=O)O)c1ccccc1; Tle = CC(C)(C)[C@H](N)C(=O)O; NMeS = CN[C@@H](CO)C(=O)O; NMeA = CN[C@@H](C)C(=O)O; Pra = C#CC[C@H](N)C(=O)O; Nva = CCC[C@H](N)C(=O)O; Ahp = NCCCCCCC(=O)O; Sar = CNCC(=O)O

The target in the assay is GMPPNP-loaded H-Ras or GTP-loaded K-Ras. The experiment in a line: FP competition, displacement of probe R4007 from Ras.
Regarding B1, the IC50 amounted to 9.42 nM.
In the case of B2, the half-maximal inhibitory concentration (IC50) stood at 2 nM.
For Ac-[Nva]CY[Tle]KH[NMeA][Phg][Trp(7-aza)]Y[NMePhe(4-F)][Sar]C[dS][dA]GCVIM (linker 2-13 via mXylylene) [R4102], the half-maximal inhibitory concentration (IC50) was 1.82 nM.
The result for Ac-[Nva]CY[Tle]KH[NMeA][Phg][Trp(7-aza)]Y[NMePhe(4-F)][Sar]CGCMSCKCVLS-NH2 (linker 2-13 via mXylylene; cysteine pairing not given here) [R4116] reads 35.7 nM; that for B3, 21.4 nM; that for [Nva]CY[Tle]KH[NMeA][Phg][Trp(7-aza)]Y[NMePhe(4-F)][Sar]C[dS]KGCVIM (linker 2-13 via mXylylene) [R4114], 32.7 nM.
The result for B4 reads 51.5 nM; that for Ac-[Nva]CY[Tle]KH[NMeA][Phg][Trp(7-aza)]Y[NMePhe(4-F)][Sar]CGCGVGIM (linker 2-13 via mXylylene) [R4119], 64.4 nM.
B5 gave an IC50 of 3.29 nM.
The result for Ac-[Nva]CY[Tle]KH[NMeA][Phg][Trp(7-aza)]Y[NMePhe(4-F)][Sar]C[dS]KGCVIM (linker 2-13 via mXylylene) [R4105] reads 3.31 nM; that for [Nva]CY[Tle]KH[NMeA][Phg][Trp(7-aza)]Y[NMePhe(4-F)][Sar]C[dS]KG[TDSPA]VIM (linker 2-13 via mXylylene) [R4113], 32.7 nM.
Molecule Ac-[Nva]C[Tle]YHT[Trp(7-aza)][Trp(7-aza)]E[Trp(7-aza)][Nva]HC-NH2 (linker 2-13 via m‑xylylene) [R4100] displayed an IC50 of 1.06 nM.
The result for Ac-[Nva]CY[Tle]KH[NMeA][Phg][Trp(7-aza)]Y[NMePhe(4-F)][Sar]C[dS]KG[TDSPA]VVL (linker 2-13 via mXylylene) [R4110] reads 16.4 nM.
The result for Ac-[Nva]CY[Tle]KH[NMeA][Phg][Trp(7-aza)]Y[NMePhe(4-F)][Sar]C[dS][dA]K[TDSPA]VIM (linker 2-13 via mXylylene) [R4111] reads 20.8 nM; that for B6, 8.38 nM; that for B7, 34.1 nM.
Next, B8: 7.92 nM; B9: 1.45 nM; B10: 48.3 nM.
Molecule Ac-[Nva]CY[Tle]KH[NMeA][Phg][Trp(7-aza)]Y[NMePhe(4-F)][Sar]C (linker 2-13 via mXylylene) [R4108] yielded a half-maximal inhibitory concentration (IC50) of 9.45 nM.
Ac-[Nva]CY[Tle]KH[NMeA][Phg][Trp(7-aza)]Y[NMePhe(4-F)][Sar]C[dS]KG[TDSPA]VIM (linker 2-13 via mXylylene) [R4109] had an IC50 of 14.2 nM.
